# From the supplement of paper PMC10065799, “High-throughput profiling of sequence recognition by tyrosine kinases and SH2 domains using bacterial peptide display” (eLife, 2023)
# Assays:
# MERTK = MERTK (UniProt Q12866); assay: phosphorylation enrichment, bacterial display (enrichment ratio); higher = better substrate or ligand; peptides without Tyr show the background
# FGFR1 = FGFR1 (UniProt P11362); assay: as above
# EPHB1 = EPHB1 (UniProt P54762); assay: as above
# EPHB2 = EPHB2 (UniProt P29323); assay: as above
# AncSZ = assay: as above
# Fes = Fes (UniProt P07332); assay: as above
# Jak2 = Jak2 (UniProt O60674); assay: as above
# Hck = Hck (UniProt P08631); assay: as above
# c-Src = assay: as above
# FGFR3 = FGFR3 (UniProt P22607); assay: as above
# Fyn = Fyn (UniProt P06241); assay: as above
# c-Abl (mouse) = assay: as above
# Fer (mouse) = assay: as above
# SHP2-C SH2 = assay: SH2 binding enrichment of the phosphorylated peptide, bacterial display (enrichment ratio); higher = better substrate or ligand; peptides without Tyr show the background
# Grb2 SH2 = Grb2 SH2 (UniProt P62993); assay: as above
# c-Src SH2 = assay: as above
# 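Wherever SH2 binding enrichment of the phosphorylated peptide, bacterial display is given: peptide library displayed on the E. coli surface as eCPX fusions, selected cells deep-sequenced, score is each peptide's frequency after selection divided by its frequency in the input.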
# 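Wherever phosphorylation enrichment, bacterial display is given: 11-residue human phosphosite peptides and single-mutation variants displayed on the E. coli surface, counted by deep sequencing, each peptide's frequency after selection divided by its frequency in the unselected input library; frequency after pTyr selection over input frequency; kinase dosed for 20-30% of maximal phosphorylation in three min.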
# Sequence of FGFR3 (P22607 whole entry, looked up): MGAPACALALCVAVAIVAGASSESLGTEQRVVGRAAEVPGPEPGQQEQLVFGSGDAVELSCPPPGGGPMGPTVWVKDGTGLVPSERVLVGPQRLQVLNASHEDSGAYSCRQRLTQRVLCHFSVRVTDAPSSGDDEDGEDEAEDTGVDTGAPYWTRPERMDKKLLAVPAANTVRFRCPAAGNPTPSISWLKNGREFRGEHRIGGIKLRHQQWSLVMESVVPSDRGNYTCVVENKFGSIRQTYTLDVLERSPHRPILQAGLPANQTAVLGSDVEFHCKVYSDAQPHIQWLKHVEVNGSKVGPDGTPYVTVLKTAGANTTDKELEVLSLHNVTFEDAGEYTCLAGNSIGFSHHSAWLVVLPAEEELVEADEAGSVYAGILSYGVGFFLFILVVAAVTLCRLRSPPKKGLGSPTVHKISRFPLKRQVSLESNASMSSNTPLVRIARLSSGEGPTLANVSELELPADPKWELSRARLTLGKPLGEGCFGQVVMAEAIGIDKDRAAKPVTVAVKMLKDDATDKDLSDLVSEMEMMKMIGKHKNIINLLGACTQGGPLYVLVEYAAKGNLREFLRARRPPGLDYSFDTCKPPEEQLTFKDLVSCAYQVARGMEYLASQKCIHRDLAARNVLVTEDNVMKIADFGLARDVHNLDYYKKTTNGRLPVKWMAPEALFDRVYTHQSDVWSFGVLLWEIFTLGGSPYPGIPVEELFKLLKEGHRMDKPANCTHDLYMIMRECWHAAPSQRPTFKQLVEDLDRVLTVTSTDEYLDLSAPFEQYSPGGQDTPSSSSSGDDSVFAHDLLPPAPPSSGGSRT
# Sequence of Fyn (P06241 whole entry, looked up): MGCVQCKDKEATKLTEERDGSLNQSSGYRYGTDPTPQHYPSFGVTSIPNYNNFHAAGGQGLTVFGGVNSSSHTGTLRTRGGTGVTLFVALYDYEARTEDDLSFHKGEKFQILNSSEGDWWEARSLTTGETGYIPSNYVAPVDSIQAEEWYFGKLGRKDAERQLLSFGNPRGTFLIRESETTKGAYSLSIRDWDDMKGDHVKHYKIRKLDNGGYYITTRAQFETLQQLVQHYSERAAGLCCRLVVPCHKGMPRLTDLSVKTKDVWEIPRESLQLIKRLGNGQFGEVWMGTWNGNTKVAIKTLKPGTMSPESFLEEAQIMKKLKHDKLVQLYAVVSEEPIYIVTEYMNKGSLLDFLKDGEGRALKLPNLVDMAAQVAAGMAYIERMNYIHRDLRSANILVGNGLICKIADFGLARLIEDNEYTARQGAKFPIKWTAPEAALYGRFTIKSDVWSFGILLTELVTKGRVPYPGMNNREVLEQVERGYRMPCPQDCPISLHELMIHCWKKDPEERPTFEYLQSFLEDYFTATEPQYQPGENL
# Sequence of EPHB1 (P54762 whole entry, looked up): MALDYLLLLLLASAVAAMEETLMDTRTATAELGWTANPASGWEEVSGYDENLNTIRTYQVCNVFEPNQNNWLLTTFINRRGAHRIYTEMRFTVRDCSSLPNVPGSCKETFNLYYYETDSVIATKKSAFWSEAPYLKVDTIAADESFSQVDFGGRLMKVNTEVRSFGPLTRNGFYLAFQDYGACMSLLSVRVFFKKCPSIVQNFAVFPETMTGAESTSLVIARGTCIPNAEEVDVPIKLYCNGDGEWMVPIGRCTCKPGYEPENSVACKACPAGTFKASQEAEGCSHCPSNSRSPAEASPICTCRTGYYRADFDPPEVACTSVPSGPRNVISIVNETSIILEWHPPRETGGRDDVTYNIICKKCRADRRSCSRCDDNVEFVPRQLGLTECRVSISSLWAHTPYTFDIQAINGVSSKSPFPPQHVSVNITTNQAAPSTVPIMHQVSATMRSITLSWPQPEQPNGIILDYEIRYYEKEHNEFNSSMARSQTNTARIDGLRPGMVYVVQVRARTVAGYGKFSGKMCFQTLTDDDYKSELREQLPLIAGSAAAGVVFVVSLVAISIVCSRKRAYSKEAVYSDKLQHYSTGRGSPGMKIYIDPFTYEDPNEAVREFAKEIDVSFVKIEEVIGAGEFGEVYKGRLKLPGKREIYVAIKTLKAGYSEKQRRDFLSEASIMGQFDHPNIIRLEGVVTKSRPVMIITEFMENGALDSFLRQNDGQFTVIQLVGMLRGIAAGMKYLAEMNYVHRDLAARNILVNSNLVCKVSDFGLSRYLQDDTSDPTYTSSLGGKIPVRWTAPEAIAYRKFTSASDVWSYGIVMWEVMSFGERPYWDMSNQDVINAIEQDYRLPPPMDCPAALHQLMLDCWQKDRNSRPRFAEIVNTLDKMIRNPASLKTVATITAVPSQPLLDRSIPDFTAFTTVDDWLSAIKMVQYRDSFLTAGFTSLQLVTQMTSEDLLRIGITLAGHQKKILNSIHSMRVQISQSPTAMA
# Sequence of Hck (P08631 whole entry, looked up): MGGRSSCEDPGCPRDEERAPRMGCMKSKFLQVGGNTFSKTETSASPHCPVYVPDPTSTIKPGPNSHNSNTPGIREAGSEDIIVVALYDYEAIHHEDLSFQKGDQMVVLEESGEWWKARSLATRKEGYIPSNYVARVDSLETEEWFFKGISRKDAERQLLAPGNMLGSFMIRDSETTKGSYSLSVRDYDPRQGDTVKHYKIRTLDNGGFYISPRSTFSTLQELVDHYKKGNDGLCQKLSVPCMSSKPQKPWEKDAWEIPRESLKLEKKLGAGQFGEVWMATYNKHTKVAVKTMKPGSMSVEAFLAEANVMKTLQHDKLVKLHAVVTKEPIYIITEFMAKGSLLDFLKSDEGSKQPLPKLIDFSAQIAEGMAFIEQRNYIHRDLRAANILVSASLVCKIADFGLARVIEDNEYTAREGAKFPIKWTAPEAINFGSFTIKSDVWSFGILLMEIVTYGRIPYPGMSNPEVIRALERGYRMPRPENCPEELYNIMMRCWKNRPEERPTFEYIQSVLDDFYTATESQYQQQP
# Sequence of EPHB2 (P29323 whole entry, looked up): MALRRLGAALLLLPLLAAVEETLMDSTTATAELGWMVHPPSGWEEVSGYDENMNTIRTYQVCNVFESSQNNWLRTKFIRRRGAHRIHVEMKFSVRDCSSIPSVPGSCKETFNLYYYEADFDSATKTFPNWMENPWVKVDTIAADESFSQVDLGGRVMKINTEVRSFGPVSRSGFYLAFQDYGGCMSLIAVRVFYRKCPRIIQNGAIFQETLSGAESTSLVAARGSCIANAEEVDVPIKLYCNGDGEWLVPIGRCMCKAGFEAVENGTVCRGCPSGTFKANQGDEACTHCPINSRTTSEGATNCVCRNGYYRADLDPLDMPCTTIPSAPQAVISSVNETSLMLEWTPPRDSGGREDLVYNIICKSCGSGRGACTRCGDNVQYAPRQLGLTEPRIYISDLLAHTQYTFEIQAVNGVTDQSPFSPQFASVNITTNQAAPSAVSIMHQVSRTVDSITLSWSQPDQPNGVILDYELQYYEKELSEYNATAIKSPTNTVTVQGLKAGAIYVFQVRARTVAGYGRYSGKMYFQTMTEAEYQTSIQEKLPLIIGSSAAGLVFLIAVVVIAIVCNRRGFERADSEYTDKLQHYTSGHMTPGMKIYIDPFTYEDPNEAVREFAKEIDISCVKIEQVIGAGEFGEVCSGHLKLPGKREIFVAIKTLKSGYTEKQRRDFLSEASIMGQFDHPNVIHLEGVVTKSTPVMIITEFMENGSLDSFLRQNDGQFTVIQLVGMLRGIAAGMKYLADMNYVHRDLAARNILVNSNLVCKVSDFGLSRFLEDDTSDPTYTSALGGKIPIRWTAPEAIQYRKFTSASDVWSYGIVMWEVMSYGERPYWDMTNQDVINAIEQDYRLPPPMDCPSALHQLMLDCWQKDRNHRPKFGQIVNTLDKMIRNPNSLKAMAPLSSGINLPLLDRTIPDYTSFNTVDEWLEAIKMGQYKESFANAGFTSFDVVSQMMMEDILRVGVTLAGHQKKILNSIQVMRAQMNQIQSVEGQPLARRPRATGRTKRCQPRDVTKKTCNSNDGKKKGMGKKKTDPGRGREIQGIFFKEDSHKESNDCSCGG
# Sequence of Fes (P07332 whole entry, looked up): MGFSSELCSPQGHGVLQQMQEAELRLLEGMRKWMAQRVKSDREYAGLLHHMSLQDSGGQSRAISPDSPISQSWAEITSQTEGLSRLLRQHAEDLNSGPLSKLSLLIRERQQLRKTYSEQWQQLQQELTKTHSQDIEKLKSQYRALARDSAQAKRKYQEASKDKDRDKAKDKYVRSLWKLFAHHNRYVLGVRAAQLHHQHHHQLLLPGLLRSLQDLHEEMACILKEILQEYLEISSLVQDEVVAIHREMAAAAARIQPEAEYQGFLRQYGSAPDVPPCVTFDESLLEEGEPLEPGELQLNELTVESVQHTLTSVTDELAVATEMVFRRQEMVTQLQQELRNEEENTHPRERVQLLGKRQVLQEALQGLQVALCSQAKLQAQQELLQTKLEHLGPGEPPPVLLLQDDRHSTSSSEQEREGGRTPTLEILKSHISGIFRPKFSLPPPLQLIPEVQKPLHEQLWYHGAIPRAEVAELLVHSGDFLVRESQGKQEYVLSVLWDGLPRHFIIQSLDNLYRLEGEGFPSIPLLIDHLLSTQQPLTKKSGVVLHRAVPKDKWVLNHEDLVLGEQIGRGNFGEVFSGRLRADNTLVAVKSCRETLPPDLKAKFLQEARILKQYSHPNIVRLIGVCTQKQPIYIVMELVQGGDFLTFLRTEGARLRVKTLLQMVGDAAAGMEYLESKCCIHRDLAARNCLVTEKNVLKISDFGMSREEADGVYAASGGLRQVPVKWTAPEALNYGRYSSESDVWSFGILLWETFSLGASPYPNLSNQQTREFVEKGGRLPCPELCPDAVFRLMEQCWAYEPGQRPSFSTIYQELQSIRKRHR
# Sequence of Grb2 SH2 (P62993 whole entry, looked up): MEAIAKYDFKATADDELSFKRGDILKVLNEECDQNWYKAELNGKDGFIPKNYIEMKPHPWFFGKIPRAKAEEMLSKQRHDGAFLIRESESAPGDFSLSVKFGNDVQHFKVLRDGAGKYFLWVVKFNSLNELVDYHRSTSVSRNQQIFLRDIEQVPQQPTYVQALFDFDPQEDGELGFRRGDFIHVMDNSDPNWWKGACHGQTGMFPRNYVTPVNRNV
Sequence,phosphorylation enrichment (MERTK),phosphorylation enrichment (FGFR1),phosphorylation enrichment (EPHB1),phosphorylation enrichment (EPHB2),phosphorylation enrichment (AncSZ),phosphorylation enrichment (Fes),phosphorylation enrichment (Jak2),phosphorylation enrichment (Hck),phosphorylation enrichment (c-Src),phosphorylation enrichment (FGFR3),phosphorylation enrichment (Fyn),phosphorylation enrichment (c-Abl (mouse)),phosphorylation enrichment (Fer (mouse)),SH2 binding enrichment (SHP2-C SH2),SH2 binding enrichment (Grb2 SH2),SH2 binding enrichment (c-Src SH2)
IYQASYYRRGD [LTK_Y676_R673Q],6.37,0.479,0.659,0.66,0.822,0.695,0.528,10.6,6.2,0.473,7.6,11.5,1.43,0.742,0.628,0.412
KAEELYIGVTV [EFHC2_Y509],1.42,2.35,0.921,0.772,2.15,1.35,0.966,2.75,2.2,2.33,2.06,0.988,5.31,0.756,0.648,0.411
KALKQYRASPS [DDX27_Y763_G766S],0.401,0.328,0.312,0.344,0.411,0.423,0.439,0.318,0.43,0.309,0.373,0.552,0.368,0.691,0.801,0.537
KANEFYPVVII [ADAMTS18_Y765_L769I_YF],0.386,1.9,0.411,0.695,1.03,1.16,1.06,0.458,0.478,1.26,0.458,0.663,0.456,0.597,0.626,0.349
KAPPTYDTVLQ [CYP3A4_Y347],1.89,0.36,6.72,7.86,0.686,0.735,0.576,2.98,1.44,0.483,2.46,0.663,2.09,0.556,0.887,2.28
KCCCIYEKPRS [PPP1R11_Y64_A69S],1.17,0.456,1.03,0.892,1.86,1.01,0.642,2.45,3.04,0.667,2.07,3.97,7.18,0.685,0.708,0.602
KDAGDYKYKAK [LRIT3_Y326_C328Y],0.32,0.337,0.353,0.366,0.398,0.604,0.519,0.346,0.319,0.387,0.308,0.571,0.256,0.515,0.68,0.415
KDDEKYLDVIR [MTM1_Y260],0.434,0.453,0.461,0.49,0.961,0.971,0.987,0.501,0.409,0.663,0.433,0.689,0.405,0.64,0.874,0.515
KDGNGYISAAE [CALM1_Y100],0.47,0.477,0.394,0.491,0.646,0.76,0.685,0.542,0.416,0.594,0.463,0.546,0.389,0.746,0.742,0.571
KDQGIYEDYVE [MYL6_Y86_T85I],0.489,0.58,0.74,0.853,1.2,1.08,0.936,1.06,2.02,0.672,2.05,0.851,1.03,0.905,0.899,0.535
KEDPEYKKKFR [FAM161A_Y278_E273K],0.433,0.534,0.499,0.589,0.749,1.07,1.02,0.477,0.502,0.6,0.34,0.824,0.455,0.873,0.921,0.513
KELAKYYKLHH [AK7_Y390_N389K],0.422,0.377,0.366,0.363,0.472,0.472,0.379,0.39,0.439,0.418,0.35,0.46,0.383,0.622,1.01,0.782
KELSSYKHLTL [SLIT2_Y776_N775S],0.404,0.393,0.315,0.38,0.556,0.53,0.491,0.445,0.451,0.406,0.427,0.511,0.497,0.497,0.757,0.481
KERNQYGEVMV [MMP21_Y347],0.404,0.502,0.455,0.436,0.587,0.734,0.547,0.507,0.744,0.463,1.39,0.683,0.653,0.825,0.93,0.391
KFEDVYVRICL [B3GALNT1_Y269_G271R],0.436,0.512,0.655,0.582,1.64,1.38,1.28,0.479,0.545,0.926,0.452,1.03,0.593,0.758,0.816,0.472
KFLENYLNRLL [PLD2_Y169_YF],0.37,0.499,0.464,0.642,0.694,0.768,0.762,0.415,0.481,0.562,0.37,0.471,0.462,1.79,1.67,1.51
KIEGIYARDET [RPL35A_Y34_V33I],0.413,0.585,0.536,0.497,0.887,0.919,0.663,1.12,1.09,0.619,1.07,0.493,0.491,0.788,0.883,0.548

Sequence,phosphorylation enrichment (MERTK),phosphorylation enrichment (FGFR1),phosphorylation enrichment (EPHB1),phosphorylation enrichment (EPHB2),phosphorylation enrichment (AncSZ),phosphorylation enrichment (Fes),phosphorylation enrichment (Jak2),phosphorylation enrichment (Hck),phosphorylation enrichment (c-Src),phosphorylation enrichment (FGFR3),phosphorylation enrichment (Fyn),phosphorylation enrichment (c-Abl (mouse)),phosphorylation enrichment (Fer (mouse)),SH2 binding enrichment (SHP2-C SH2),SH2 binding enrichment (Grb2 SH2),SH2 binding enrichment (c-Src SH2)
KIRDWYQRQRP [KRT14_Y151],0.446,0.415,0.405,0.463,0.621,0.635,0.553,0.38,0.502,0.419,0.4,0.637,0.45,0.744,0.84,0.523
KIVQDYLEKFF [MMP8_Y36_T32I_YF],0.512,0.616,0.662,0.595,1.19,1.38,1.02,0.773,0.556,0.808,0.614,0.956,0.65,1.19,1.08,0.691
KKEGPYDVVVL [PARK7_Y67],0.7,0.494,0.492,0.49,0.675,0.776,0.691,0.57,1.33,0.546,1.01,0.631,6.5,0.629,0.801,0.827
KKHIPCREHKS [CSNK1G2_Y206_Y206C],0.713,1.13,1.6,0.962,1.76,2.35,3.46,0.876,0.832,3.13,0.667,2.79,1.66,1.62,1.6,1.68
KKHIPHREHKS [CSNK1G2_Y206_Y206H],1.42,1.97,2.61,1.71,2.89,4.05,5.87,1.72,1.53,4.9,1.01,4.03,2.81,1.87,2.15,1.8
KKRSVYIKVLF [CC2D2A_Y683_L684I],0.335,0.457,0.411,0.396,0.99,0.954,0.798,0.363,0.304,0.515,0.392,0.644,0.451,0.646,1.1,0.548
KLADMYGGGKD [CDH1_Y876_E880K],0.346,0.462,0.468,0.497,0.584,0.692,0.547,0.476,0.353,0.424,0.425,0.528,0.414,0.376,0.779,0.412
KLADVYQAELR [GFAP_Y116],0.429,0.472,0.533,0.459,0.789,0.792,0.549,0.47,0.634,0.667,0.492,0.549,0.445,0.561,0.844,0.486
KLCHLYQDHMQ [WNT5A_Y86],0.45,0.44,0.54,0.53,0.654,0.881,0.549,0.554,0.575,0.514,0.442,0.597,0.667,1.17,1.08,1.4
KLKPIYFHTQG [AR_Y916_V912L],0.4,0.511,0.393,0.503,0.602,0.671,0.513,0.364,0.523,0.525,0.349,0.568,0.312,2.12,1.78,1.95
KLPDAYERFIL [G6PD_Y437_L440F],0.538,0.476,0.568,0.562,0.985,1.06,0.892,0.569,0.713,0.661,0.578,0.745,1.22,0.801,0.933,1.1
KLQQWYREPRS [GPI_Y17_H20P],0.463,0.36,0.44,0.712,0.85,0.708,0.562,0.493,0.507,0.491,0.446,0.615,0.385,0.799,0.999,0.5
KLSCSYSHWSA [C4BPA_Y470],0.527,0.793,0.716,0.771,1.13,1.28,0.894,0.636,0.672,0.91,0.578,1.15,0.657,0.802,0.894,0.732
KLSFSYGWALQ [ALDOB_Y302_R304W],0.559,0.676,0.844,0.764,1.52,1.8,1.72,0.509,0.585,0.936,0.503,1.19,0.591,0.67,0.921,0.558
KNCFKYYMSDD [ATRX_Y203],0.496,0.547,0.794,0.701,1.4,1.37,1.16,0.595,0.572,1.01,0.54,0.961,0.624,0.785,0.828,0.835
KNSSIYVVANI [VNN1_Y134_N131S],0.751,0.528,0.681,0.64,1.23,1.38,1.31,0.662,0.691,0.873,0.567,1.07,0.622,0.942,0.988,0.646
